Data as given in PMC12122940.

Target: H3 1–19 peptide

Sequence of PRDM9 (195–415) (Q9NQV7 195-415): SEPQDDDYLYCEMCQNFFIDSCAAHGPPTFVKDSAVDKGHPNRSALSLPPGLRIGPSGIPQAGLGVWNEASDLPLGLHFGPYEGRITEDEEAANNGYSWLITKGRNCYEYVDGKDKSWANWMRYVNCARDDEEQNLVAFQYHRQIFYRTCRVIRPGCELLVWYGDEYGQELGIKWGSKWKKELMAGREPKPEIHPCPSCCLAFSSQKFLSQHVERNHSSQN

methylation of the soluble peptide (2.5 µM peptide, 50 nM enzyme, radioactively labeled AdoMet, autoradiography); ratio of the initial methylation rates H3K4/H3K36 (fold (against the H3K36 26-44 peptide)): 5.2
Substance: PRDM9 (195–415) (from UniProt Q9NQV7 195-415) (enzyme)
